This assay concerns the target T1, MBP-SnRK2.6 (Arabidopsis thaliana, UniProt Q940H6 1-362).
T1 construct: SNF1-related protein kinase 2.6 (SnRK2.6, OST1), Arabidopsis thaliana, in pMal-c2X; source: E. coli BL21 (DE3), purified (amylose resin); not shown: MBP, N-terminal, kept
T1 sequence (looked up): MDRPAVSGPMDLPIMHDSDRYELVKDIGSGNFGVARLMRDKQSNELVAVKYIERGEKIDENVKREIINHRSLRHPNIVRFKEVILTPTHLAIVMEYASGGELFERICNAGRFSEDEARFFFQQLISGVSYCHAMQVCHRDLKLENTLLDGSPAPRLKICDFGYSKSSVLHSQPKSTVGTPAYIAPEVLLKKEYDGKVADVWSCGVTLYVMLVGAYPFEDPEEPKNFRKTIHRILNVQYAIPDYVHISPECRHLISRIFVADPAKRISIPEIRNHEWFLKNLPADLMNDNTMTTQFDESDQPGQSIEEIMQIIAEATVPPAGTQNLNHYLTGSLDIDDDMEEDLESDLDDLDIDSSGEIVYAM
The assay can be described thus: pull-down; GST-TOPP1 or GST-AtI-2 incubated with MBP-SnRK2.6 in amylose resin, 4 hours at 4°C, washed 4 times with 1X PBS; SDS-PAGE, coomassie blue. Conditions: both partners purified.

B1: GST-TOPP1 (enzyme, Arabidopsis thaliana, UniProt P30366 1-318, looked up)
chain: MAEKPAQEQEQKRAMEPAVLDDIIRRLVEFRNTRPGSGKQVHLSEGEIRQLCAVSKEIFLQQPNLLELEAPIKICGDIHGQYSDLLRLFEYGGFPPEANYLFLGDYVDRGKQSLETICLLLAYKIKYPENFFLLRGNHESASINRIYGFYDECKRRFNVRLWKIFTDCFNCLPVAALIDDRILCMHGGISPELKSLDQIRNIARPMDIPESGLVCDLLWSDPSGDVGWGMNDRGVSYTFGADKVAEFLEKHDMDLICRAHQVVEDGYEFFAERQLVTVFSAPNYCGEFDNAGAMMSIDESLMCSFQILKPSEKKSPFL
notes: also called GST-tagged TOPP1; source: E. coli, purified (glutathione-agarose beads); not shown: GST, N-terminal, kept
Turning to B1, the binding result is given as “binds”.

B2: GST-AtI-2 (natural protein, Arabidopsis thaliana, UniProt Q9LTK0 1-191, looked up)
chain: MTEPKRGRVQWDEANIVEIESNKPVRQKITEPKTPYHPMMDDDGSLSPRGRAFDECVDDMQRAEELRNVLNDAAASSSRNSSQGSGGGGWSSSDEEEEEADPMDQDEEGSGSGKNERFNAHRKAHYDEFRKVKELRSSGSFYEEEEEEDDGAKGSKSETTTNSRHTKGGNKELDATKTVSGTSSSSSPELI
notes: source: E. coli, purified (glutathione-agarose beads); not shown: GST, N-terminal, kept
In the case of B2, the binding result is on record as “binds”.

Source of the values: paper PMC4778861, “Type One Protein Phosphatase 1 and Its Regulatory Protein Inhibitor 2 Negatively Regulate ABA Signaling” (PLoS Genetics, 2016).
